Laboratory results published in PMC4949121 (Inorganic chemistry, 2016).

Tests used:
[1] = test system: VLA-4-overexpressing B16F10 mouse melanoma cells; assay: Cell internalization assay; format: cell-based; settings: 10 pmol per well
[2] = test system: C57BL/6 mice bearing B16F10 xenografts
in vivo [3] = settings: female, C57BL/6, mouse, iv, total radioactivity
in vivo [4] = settings: female, C57BL/6, mouse, tumor and muscle, iv, total radioactivity

Cc1ccccc1NC(=O)Nc1ccc(CC(=O)N[C@@H](CCCCNC(=O)/C=C/c2cccnc2)C(=O)N[C@@H](CCCC(=O)O)C(=O)NC2(C(=O)NCCOCCOCCOCCOCC(=O)N[C@@H](CCCCNC(=S)Nc3ccc(CCCN(CCN4CCN(CC(=O)O)CCN(CC(=O)O)CC4)CC(=O)O)cc3)C(N)=O)CCCCC2)cc1 [^64Cu-NE3TA-PEG4-LLP2A, metal not drawn]
time at which internalization became saturated ([1]; time points 15 min, 1 h, 2 h, 4 h): ~ 2 h | specific internalization (total minus blocked) ([1]; up to 4 h, blocking with unlabeled LLP2A-PEG4 10 μg per well): High specific internalization | liver and kidney uptake ([2]; biodistribution): relatively low | uptake in tumor, spleen, bone, lung, and thymus with blocking ([2]; coinjection of excess unlabeled LLP2A-PEG4 (100 μg)): significantly reduced | tissue to tissue ratio at 4 h (in vivo [3]; tumor and blood): 16.8 ± 1.8 | tissue to tissue ratio at 24 h (in vivo [3]; tumor and muscle): 25.2 ± 7.8 | tissue to tissue ratio at 2 h (in vivo [4]): 13.1 ± 2.4 | tissue to tissue ratio at 4 h (in vivo [4]): 30.9 ± 0.7
